One assay addresses T1, subunit 1 of complex III (bovine (endogenous in heart …, UniProt P31800 35-480)).
T1 construct: complex III subunit 1, bovine heart; stood in the assay as a subunit of the complex III dimer within the respirasome; also called subunit 1 of the bc1 complex; source: endogenous, bovine heart mitochondria; part of the supercomplex I1III2IV1 purified in amphipol A8-35
T1 sequence (looked up): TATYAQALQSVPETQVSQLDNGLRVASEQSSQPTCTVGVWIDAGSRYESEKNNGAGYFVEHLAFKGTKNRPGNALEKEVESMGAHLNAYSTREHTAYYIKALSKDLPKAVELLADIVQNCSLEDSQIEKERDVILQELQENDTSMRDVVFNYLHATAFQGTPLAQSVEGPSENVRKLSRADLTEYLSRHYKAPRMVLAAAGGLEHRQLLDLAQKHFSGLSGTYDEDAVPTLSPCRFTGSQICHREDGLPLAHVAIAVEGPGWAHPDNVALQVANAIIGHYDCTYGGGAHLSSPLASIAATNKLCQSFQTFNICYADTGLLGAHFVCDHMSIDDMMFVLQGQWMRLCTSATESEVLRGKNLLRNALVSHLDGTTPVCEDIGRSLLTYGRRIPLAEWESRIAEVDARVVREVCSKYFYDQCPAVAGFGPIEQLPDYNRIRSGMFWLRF
Briefly: cryo-EM structure; class 1 map of supercomplex I1III2IV1 (17,094 particles, 9.1 Å; transmembrane region 8.6 Å); native supercomplex co-purified from bovine heart mitochondria (PCC-a-M, then amphipol A8-35, density gradient); atomic models of complexes I, III and IV docked. The following applies: both partners purified.

The target in a further assay is T2, subunit ND5 of complex I (bovine (endogenous in heart …, UniProt P03920 1-606)).
T2 construct: complex I core subunit ND5, bovine heart; stood in the assay as a subunit of complex I within the respirasome; source: endogenous, bovine heart mitochondria; part of the supercomplex I1III2IV1 purified in amphipol A8-35
T2 sequence (P03920 whole entry, one chain of several): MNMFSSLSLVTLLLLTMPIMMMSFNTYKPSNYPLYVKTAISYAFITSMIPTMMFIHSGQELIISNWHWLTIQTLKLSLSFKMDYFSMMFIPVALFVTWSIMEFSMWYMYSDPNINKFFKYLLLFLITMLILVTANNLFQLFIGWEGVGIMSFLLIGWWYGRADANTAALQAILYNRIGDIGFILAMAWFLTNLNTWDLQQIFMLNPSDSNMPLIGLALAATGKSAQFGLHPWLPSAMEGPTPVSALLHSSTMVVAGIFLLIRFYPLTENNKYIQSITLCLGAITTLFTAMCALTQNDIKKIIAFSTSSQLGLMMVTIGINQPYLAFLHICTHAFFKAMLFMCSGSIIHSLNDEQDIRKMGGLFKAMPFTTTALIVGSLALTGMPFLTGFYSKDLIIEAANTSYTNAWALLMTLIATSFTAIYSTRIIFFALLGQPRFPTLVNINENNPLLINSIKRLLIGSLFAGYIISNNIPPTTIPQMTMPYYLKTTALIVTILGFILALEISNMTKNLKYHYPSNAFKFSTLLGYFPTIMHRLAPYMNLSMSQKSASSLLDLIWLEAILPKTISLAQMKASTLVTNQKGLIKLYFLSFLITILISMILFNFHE
The description is as above. The following applies: both partners purified.

B1: COX7A1 of cytochrome c oxidase (complex IV) (natural protein, UniProt P07470 22-80, looked up)
chain: FENRVAEKQKLFQEDNGLPVHLKGGATDNILYRVTMTLCLGGTLYSLYCLGWASFPHKK
notes: complex IV subunit COX7A1, bovine heart; stood in the assay as a subunit of complex IV within the respirasome; source: endogenous, bovine heart mitochondria; part of the supercomplex I1III2IV1 purified in amphipol A8-35
Turning to B1, the binding result with subunit 1 of complex III is “binds”.

B2: complex IV subunit COX7C (natural protein, UniProt P00430 17-63, looked up)
chain: SHYEEGPGKNIPFSVENKWRLLAMMTLFFGSGFAAPFFIVRHQLLKK
notes: complex IV subunit COX7C, bovine heart; stood in the assay as a subunit of complex IV within the respirasome; source: endogenous, bovine heart mitochondria; part of the supercomplex I1III2IV1 purified in amphipol A8-35
For B2, the binding result in the assay with subunit ND5 of complex I is reported as “binds”.

(Values after article PMC5117854, “Functional asymmetry and electron flow in the bovine respirasome” (eLife, 2016).)
